Measurements reported in paper PMC6971206.
One block for each molecule: values may come before it.

Columns and labels:
[1] = target: bc1 complex (Complex III), dimer (S. cerevisiae (endogenous in BY4741 mitochondria)) (UniProt P07256); assay: native gel or EMSA; BN-PAGE (3-12% NativePage Bis-Tris) of mitochondria solubilised in 2% digitonin, then Western blot or second-dimension SDS-PAGE and immuno decoration; comigration; cells grown in YPGal, YPD or YPG; wild type, rcf1Δ, rcf2Δ and truncation strains
[2] = target: respiratory supercomplexes (III2IV and III2IV2) of bc1 complex and cytochrome c oxidase (S. cerevisiae (endogenous in BY4741 mitochondria)) (UniProt P07256); assay: as above

fold change of the share residing in supercomplexes, YPG against YPD [1]: 1.4 fold
Molecule: cytochrome c oxidase (Complex IV), monomeric (from UniProt P00401 1-534; P00410 16-251; P00420 1-269; P04037 26-155; P00424 21-153; P00427 41-148; Q01519 1-83; P32799 10-129)

fold change of the share residing in supercomplexes, YPG against YPD [2]: 3.7 fold
B1: Rcf2 (respiratory supercomplex factor 2) (natural protein)
chain: MKILTQDEIEAHRSHTLKGGIEGALAGFAISAIIFKVLPRRYPKFKPSTLTWSIKTALWITPPTVLTAICAEEASNNFDATMYGSGSSSEDALDEHRRWKSLSTKDKFVEGLSNNKYKIITGAWAASLYGSWVIVNKDPIMTKAQKIVQARMYAQFITVGLLLASVGLSMYENKLHPNKQKVNEMRRWENALRVAEEEERLEKEGRRTGYVSNEERINSKIFKS

fold change of the share residing in supercomplexes, YPG against YPD [2]: 2.5 fold
B2: Rcf1 (respiratory supercomplex factor 1) (natural protein)
chain: MSRMPSSFDVTERDLDDMTFGERIIYHCKKQPLVPIGCLLTTGAVILAAQNVRLGNKWKAQYYFRWRVGLQAATLVALVAGSFIYGTSGKELKAKEEQLKEKAKMREKLWIQELERREEETEARRKRAELARMKTLENEEEIKNLEKELSDLENKLGKK
